For one assay, the target named is T1, R427H.
T1 construct: also called Mu-FXII R427H mutant with C-terminal 8xHis-tag; mutant e)
T1 single chain: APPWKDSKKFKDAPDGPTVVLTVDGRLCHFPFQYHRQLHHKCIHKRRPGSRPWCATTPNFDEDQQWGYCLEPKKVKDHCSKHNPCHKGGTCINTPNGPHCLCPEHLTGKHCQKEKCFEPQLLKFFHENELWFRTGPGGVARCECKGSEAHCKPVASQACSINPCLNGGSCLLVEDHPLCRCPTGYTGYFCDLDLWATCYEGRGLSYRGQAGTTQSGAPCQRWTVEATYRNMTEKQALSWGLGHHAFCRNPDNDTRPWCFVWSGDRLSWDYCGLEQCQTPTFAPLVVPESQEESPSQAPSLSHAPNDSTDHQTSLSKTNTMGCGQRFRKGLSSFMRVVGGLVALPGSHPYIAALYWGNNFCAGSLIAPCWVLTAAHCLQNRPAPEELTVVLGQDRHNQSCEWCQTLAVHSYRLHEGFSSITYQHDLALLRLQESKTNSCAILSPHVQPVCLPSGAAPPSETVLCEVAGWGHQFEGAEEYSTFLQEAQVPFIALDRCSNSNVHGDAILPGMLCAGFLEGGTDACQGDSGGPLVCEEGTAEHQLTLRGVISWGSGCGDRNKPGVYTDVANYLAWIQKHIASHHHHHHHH
Description: Western blot of culture supernatant (non-reducing SDS-PAGE) probed with 3F7 mAb, anti-human IgG-FITC. The procedure: Proteins were then transferred electrophoretically onto nitrocellulose filters and blocked for 1 hour in 5% Milk powder in Tris-buffered saline with 0.05% Tween-20 (TTBS). Filters were then incubated for 1 hour with either 3F7 mAb or an anti-His mAb 3H3 (both at […] in TTBS with 5% Milk powder), washed thoroughly with TTBS, then incubated for a further hour with anti-human IgG-FITC or anti-mouse IgG-FITC, respectively (Millipore, USA; both at 0.25 mg/ml in TTBS with 5% Milk powder). Following further washing of membranes in TTBS, Ab-FITC bound proteins were visualized using a Typhoon variable mode analyzer (GE Healthcare, USA).
Background: Immunoblotting shows a protein as a band on a membrane.

A further assay deals with T2, human Factor XIIa-alpha (human, UniProt P00748 20-615).
T2 sequence: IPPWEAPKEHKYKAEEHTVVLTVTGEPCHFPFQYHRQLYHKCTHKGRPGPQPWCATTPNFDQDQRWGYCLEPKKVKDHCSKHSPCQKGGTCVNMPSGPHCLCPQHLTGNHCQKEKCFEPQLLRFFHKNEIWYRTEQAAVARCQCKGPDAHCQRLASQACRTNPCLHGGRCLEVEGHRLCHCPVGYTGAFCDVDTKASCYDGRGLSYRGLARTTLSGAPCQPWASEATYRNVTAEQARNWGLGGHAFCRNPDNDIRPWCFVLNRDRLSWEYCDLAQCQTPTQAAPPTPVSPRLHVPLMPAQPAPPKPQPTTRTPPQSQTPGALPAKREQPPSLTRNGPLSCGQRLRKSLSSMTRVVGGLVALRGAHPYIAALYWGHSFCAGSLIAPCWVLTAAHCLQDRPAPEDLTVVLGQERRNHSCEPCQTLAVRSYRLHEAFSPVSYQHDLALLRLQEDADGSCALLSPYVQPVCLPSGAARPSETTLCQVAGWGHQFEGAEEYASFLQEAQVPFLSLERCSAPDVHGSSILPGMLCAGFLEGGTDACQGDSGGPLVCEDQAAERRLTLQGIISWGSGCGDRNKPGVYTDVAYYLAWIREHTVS
Description: cell-based or functional assay.

In the next assay the target is T3, human FXIIa (human, UniProt P00748 20-615, limits assumed).
T3 sequence: T2 sequence
Description: cell-based or functional assay.

The target of assay [1] is T4, human Factor XIIa-beta (human, UniProt P00748 354-615, limits assumed).
T4 construct: Bought from Enzyme Research Laboratories; also called FXIIa beta; FXIIa-beta
T4 sequence: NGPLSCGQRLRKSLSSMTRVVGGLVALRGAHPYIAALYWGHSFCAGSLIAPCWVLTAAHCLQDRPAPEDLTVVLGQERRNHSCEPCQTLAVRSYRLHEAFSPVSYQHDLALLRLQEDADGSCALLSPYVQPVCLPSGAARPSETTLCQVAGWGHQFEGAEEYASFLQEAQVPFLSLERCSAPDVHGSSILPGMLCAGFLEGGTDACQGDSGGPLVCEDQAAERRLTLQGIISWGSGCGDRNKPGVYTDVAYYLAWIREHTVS
In words: SPR (Biacore), KD against parental 3F7. (In general: In SPR one partner is held on a chip, and binding of the other changes the refractive index at the surface.)

Assay [2] deals with T4, human Factor XIIa-beta. Description: SPR (Biacore), purified IgG captured on anti-human IgG, FXIIa beta 0-40 nM, 1:1 fit, 25 C.
In assay [3] the target is T4, human Factor XIIa-beta. Description: SPR (Biacore A100), unpurified IgG4 supernatant captured on anti-human IgG, single FXIIa beta concentration (100 nM), 37 C, 1:1 fit; estimated. The procedure:
Anti-human (Goat anti-human IgG (gamma) mouse adsorbed, Invitrogen, Cat No. H10500) was chemically immobilised on a CM-5 sensor surface using amine coupling chemistry. Culture supernatants were diluted 1/60 with running buffer before capture. Antibodies were captured for 180 seconds representing an average capture of 800 response units (RU). FXIIa beta was then injected at zero and 100 nM for 180 seconds, and dissociated for 180 seconds. All assays were conducted on a Biacore A100 instrument at 37 degrees Celsius and the data fitted to a 1:1 kinetic model.

Here are results for one molecule from patent US20200062863A1 (CSL BEHRING, published 2020).

Usually Kd stands for the concentration at which binding is half-saturated.

B1: monoclonal antibody 3F7 (fully human IgG4/lambda) (antibody, V domains shown)
VH: EVQLLESGGGLVQPGGSLRLSCAASGFTFSKYIMQWVRQAPGKGLEWVSGIRPSGGTTVYADSVKGRFTISRDNSKNTLYLQMNSLRAEDTAVYYCARALPRSGYLISPHYYYYALDVWGQGTTVTVSS
VL: QSELTQPPSASGTPGQRVTISCSGSSSNIGRNYVYWYQQVPGTAPKLLIYSNNQRPSGVPDRFSGSKSGTSASLVISGLRSEDEADYYCAAWDASLRGVFGGGTKLTVLG
notes: also called 3F7 mAb; MAb 3F7
For B1, the binding result with R427H is “binds”. Also, in the assay with human Factor XIIa-alpha, the “% Inhibition, ratio FXIIa-alpha:Antibody 1:0.1” value came out at 35.5%; the “% Inhibition, ratio FXIIa-alpha:Antibody 1:0.1 (second 3F7 block)” value turned out to be 38.3%; the “% Inhibition, ratio FXIIa-alpha:Antibody 1:0.2” value stood at 62.5%; the “% Inhibition, ratio FXIIa-alpha:Antibody 1:0.2 (second 3F7 block)” value was found to be 66.8%. Further, in the assay with human Factor XIIa-alpha, the “% Inhibition, ratio FXIIa-alpha:Antibody 1:0.5” value came to 91.9%; the “% Inhibition, ratio FXIIa-alpha:Antibody 1:0.5 (second 3F7 block)” value was found to be 91.4%; the “% Inhibition, ratio FXIIa-alpha:Antibody 1:1” value was 97.9%; the “% Inhibition, ratio FXIIa-alpha:Antibody 1:1 (second 3F7 block)” value stood at 96.1%. Besides, in the assay with human Factor XIIa-alpha, the “% Inhibition, ratio FXIIa-alpha:Antibody 1:2” value came out at 100%; the “% Inhibition, ratio FXIIa-alpha:Antibody 1:2 (second 3F7 block)” value turned out to be 100%; the “% Inhibition, ratio FXIIa-alpha:Antibody 1:5” value was 100%; the “% Inhibition, ratio FXIIa-alpha:Antibody 1:5 (second 3F7 block)” value came out at 100%. Further, in the assay with human Factor XIIa-alpha, the “% Inhibition, ratio FXIIa-alpha:Antibody 1:10” value was determined as 100% and the “% Inhibition, ratio FXIIa-alpha:Antibody 1:10 (second 3F7 block)” value was determined as 100%. Further, the “IC50 (read off the curve)” value in the assay with human FXIIa is roughly 10 nM. For the same molecule, the Fold affinity improvement in the assay with human Factor XIIa-beta [1] is 1 fold. Moreover, binding with human Factor XIIa-beta [2] was characterised by a dissociation constant (Kd) of 6.2 nM. Besides, in the assay with human Factor XIIa-beta [3], the Kd was 33 nM.
